Source: article PMC5840378

Target: T1, 14-3-3ε full length (14-3-3ε FL), recombinant, P62258
T1 chain: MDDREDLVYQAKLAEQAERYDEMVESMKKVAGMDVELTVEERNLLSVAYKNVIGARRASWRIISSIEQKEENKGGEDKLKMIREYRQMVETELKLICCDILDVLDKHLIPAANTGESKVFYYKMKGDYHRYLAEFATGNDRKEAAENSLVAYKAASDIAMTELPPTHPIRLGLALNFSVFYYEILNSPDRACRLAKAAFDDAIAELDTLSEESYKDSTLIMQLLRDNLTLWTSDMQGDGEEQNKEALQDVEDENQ
Assay: AUC + other: dynamic light scattering; sedimentation velocity, 20 °C, 45,000 r.p.m., 37 μM, 5 mM sodium phosphate pH 6.3; DLS at 0.1 mg/mL, 25 °C, same buffer
Details: remark: other sources report otherwise

B1: 14-3-3ε full length (14-3-3ε FL), recombinant, P62258 1-255 (natural protein)
chain: T1 chain
stoichiometry N: 2
